From patent US20080008719A1 (Alexion, published 2008) come the findings set out here.

In one experiment the target is T1, Integrin alpha3/beta1 (human, UniProt P26006 33-1051; P05556 21-798).
T1 construct: also called α3β1
Kind of experiment: immunoprecipitation from PC-3 membrane lysate with biotinylated Fab, mass spectrometry.

Experiment [1] concerns the target CUB-domain-containing protein 1 (CDCP1) (human) (UniProt Q9H5V8). Kind of experiment: flow cytometry on PC-3 cells. For orientation: In flow cytometry, cells or beads pass a laser one at a time.

T1 sequence (P26006 33-1051 limits assumed, chain 1 of 2): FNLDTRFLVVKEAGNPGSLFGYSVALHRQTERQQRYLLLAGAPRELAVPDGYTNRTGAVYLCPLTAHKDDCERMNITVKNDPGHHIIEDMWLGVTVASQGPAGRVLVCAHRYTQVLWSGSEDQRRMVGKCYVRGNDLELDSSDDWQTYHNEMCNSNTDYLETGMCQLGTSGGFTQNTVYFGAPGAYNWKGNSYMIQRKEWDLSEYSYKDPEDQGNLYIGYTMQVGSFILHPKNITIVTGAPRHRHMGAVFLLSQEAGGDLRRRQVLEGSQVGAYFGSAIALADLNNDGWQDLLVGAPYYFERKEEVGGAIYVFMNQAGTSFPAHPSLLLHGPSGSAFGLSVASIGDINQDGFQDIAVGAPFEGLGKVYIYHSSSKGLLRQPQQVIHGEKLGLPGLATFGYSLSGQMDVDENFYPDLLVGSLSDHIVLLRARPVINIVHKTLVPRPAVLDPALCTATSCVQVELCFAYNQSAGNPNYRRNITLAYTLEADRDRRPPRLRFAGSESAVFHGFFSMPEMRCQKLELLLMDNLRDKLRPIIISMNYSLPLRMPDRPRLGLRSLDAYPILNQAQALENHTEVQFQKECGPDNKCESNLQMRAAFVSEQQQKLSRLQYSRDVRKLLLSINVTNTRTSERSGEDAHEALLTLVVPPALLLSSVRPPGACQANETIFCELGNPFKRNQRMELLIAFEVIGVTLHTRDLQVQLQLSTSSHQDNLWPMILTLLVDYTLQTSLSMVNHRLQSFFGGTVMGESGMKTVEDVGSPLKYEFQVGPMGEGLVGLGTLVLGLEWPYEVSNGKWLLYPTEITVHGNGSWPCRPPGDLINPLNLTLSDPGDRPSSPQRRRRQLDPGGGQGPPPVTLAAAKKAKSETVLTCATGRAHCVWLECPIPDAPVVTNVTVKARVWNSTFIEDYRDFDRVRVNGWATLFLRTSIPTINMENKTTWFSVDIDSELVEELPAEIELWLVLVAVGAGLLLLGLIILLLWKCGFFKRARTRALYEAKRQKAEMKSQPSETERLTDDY
T1 sequence (P05556 21-798 limits assumed, chain 2 of 2): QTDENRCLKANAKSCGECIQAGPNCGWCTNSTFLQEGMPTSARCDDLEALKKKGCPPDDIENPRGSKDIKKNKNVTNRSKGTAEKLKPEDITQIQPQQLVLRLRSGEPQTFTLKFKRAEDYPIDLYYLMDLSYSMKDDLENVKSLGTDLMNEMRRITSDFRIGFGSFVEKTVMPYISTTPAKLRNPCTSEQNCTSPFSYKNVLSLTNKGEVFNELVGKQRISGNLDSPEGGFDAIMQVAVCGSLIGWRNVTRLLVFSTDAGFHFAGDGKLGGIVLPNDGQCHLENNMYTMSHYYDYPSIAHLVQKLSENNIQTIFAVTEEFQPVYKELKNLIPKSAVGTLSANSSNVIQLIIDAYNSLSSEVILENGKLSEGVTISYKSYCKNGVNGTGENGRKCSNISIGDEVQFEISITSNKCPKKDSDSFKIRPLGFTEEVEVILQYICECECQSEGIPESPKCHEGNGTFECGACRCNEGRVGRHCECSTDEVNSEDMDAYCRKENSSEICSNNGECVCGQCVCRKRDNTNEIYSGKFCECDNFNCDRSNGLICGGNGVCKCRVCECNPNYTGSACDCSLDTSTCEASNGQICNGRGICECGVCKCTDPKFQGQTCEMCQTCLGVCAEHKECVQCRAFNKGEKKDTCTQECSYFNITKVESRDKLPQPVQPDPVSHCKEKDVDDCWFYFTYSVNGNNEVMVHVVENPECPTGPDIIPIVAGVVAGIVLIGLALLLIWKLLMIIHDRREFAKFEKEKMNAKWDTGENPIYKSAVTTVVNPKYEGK
Description for Integrin alpha3/beta1: PC-3 cell membranes (10⁸ cell equivalents/mL) in Nonidet P-40 Lysis Buffer (1% Nonidet P-40, 50 mM Tris.HCl pH 7.5, 0.15 M NaCl, 10% glycerol plus Complete Protease Inhibitors) were incubated with 50 μg/mL chicken egg white avidin for 30 min on ice. Insoluble material was removed by centrifugation for 30 min at 150,000 g. The lysate was precleared with normal rabbit serum and protein G Sepharose beads (Amersham-Pharmacia, Piscataway, N.J.). Antigens were captured by adding biotinylated Fabs (10 μg/mL) to the lysate and incubating overnight at 4° C. Immobilized streptavidin was added (50 μL of packed beads per mL) for 3 h at 4° C. with gentle mixing, followed by five washes with Nonidet P-40 Lysis Buffer. After SDS-PAGE separation, antigen bands were cut from the gel.

B1: Fab 23E9 (Fab, V domains shown)
VH: EVELQQSGAELVKPGASVKLSCKASGYTFTNYYMHWVKQRPGQGLEWIGEINPSSGGTNFNEKFKSKATLTVDKSSSTAYMQLSSLTSEDSAVYYCTRFDRTENGMDYWGQGTSVTVSS
VL: DNVLTQSPASLAVSPGQRATISCKASQSVDYDGDNYMNWYQQKPGQPPKLLIYAASNLESGIPARFSGSGSGTDFTLNIHPVEEEDAATYFCQQSDEDPYTFGGGTKLEIKR
Turning to B1, the binding result in the experiment with Integrin alpha3/beta1 is on record as “binds”.

B2: Fab 61E10 (Fab, V domains shown)
VH: EVQLQQSGAELVKPGASVKLSCKASGYTFTNYYMHWVKQRPGQGLEWIGEINPSSGGTNFNEKFKSKATLTVDKSSSTAYMQLSSLTSEDSAVYYCTRFDRTENGLDYWGQGTSVTVSS
VL: DIVMTQSPASLAVSLGQRATISCKASQSVDYDGDNYMNWYQQKPGQPPKLLIYAASNLESGIPARFSGSGSGTDFTLNIHPVEEEDAATYYCQQSNGDPWTFGGGTKLEIKR
On to B2, for which the binding result with Integrin alpha3/beta1 is reported as “binds”.

B3: Fab 84H7 (Fab, V domains shown)
VH: EVQLQQSGAVLLKPGASVKLSCTASGFNIKDTYIHWMKQRPEQGLEWIGRIDPADGNTKYDPKFQGKATITADTSSNTAYLQLSSLTSEDTAVYYCTTAFYYSMDYWGQGTSVTVSS
VL: DIVLTQSQKFMSTSVGDRVSVTCKASQNVGTNVAWYQQKPGQSPKALIYSASYRYSGVPDRFTGSGSGTDFTLTISNVQSEDLAEYFCQQYNSYPRTFGGGTKLEIKR
notes: also called 84H7 (63C10)
For the molecule B3, the binding result with Integrin alpha3/beta1 is listed as “binds”.

B4: Fab 36C1 (Fab, V domains shown)
VH: EVQLQQSGAELVKPGASVKLSCTASGFNIKDTYIHWMNQRPEQGLEWIGRIDPADGNTKYDPKFQDKATITADTSSNTAYLHLSSLTSEDTAVYYCTTAFYYSMDYWGQGTSVTVSS
VL: DIVMTQSQKFMSTSVGDRVSVTCKASQNVGTNVAWYQQTPGQSPKALIYSASYRYSGVPDRFTGSGSGTDFTLTINNVQSEDLAEYFCQQYNSYPRTFGGGTTLEIKR
Take B4: the binding result with Integrin alpha3/beta1 was “binds”.

B5: Fab 25A11 (murine Fab) (Fab, V domains shown)
VH: EVQLQQPGAELVKPGASVKMSCKASGYTFTSYYMYWVKQRPGQGLEWIGEINPSHGGTNFNEKFKNKATLTVDKSSSTVYMQLSSLTSEDSAVYYCTRGGNYPYFAMDYWGQGTSVTVSS
VL: DIQMTQTTSSLSASLGDRVTISCRASQDISNYLNWYQQKPDGTVKLLIYYTSRLHSGVPSRFSGSGSGTDYSLTISNLEQEDIATYFCQQGNTLPWTFGGGTKLEIKR
For the molecule B5, in experiment [1], the percent saturation of PC-3 cells at 160 nM Fab was 80%.
